# In paper PMC2289474:
# Key:
# [1] = biological target: laminin (Engelbreth-Holm-Swarm tumor laminin, free of entactin) (mouse (endogenous in EHS tumor)) (UniProt P19137); assay: sedimentation assay of polymerization
# [2] = biological target: laminin/entactin complex (laminin-nidogen complex) of the EHS tumor (mouse (endogenous in EHS tumor)) (UniProt P19137); assay: sedimentation assay of polymerization
# [3] = biological target: laminin/entactin complex (laminin-nidogen complex) of the EHS tumor (mouse (endogenous in EHS tumor)) (UniProt P19137); assay: extraction of laminin from tissue matrix
critical concentration of polymerization [1],critical concentration of polymerization [2],concentration of free laminin over the EHS matrix in buffer at 37 C [3],percent of total laminin of the EHS matrix extracted by 10 mM EDTA [3],Substance
0.1 mg/mL,–,–,–,"laminin (Engelbreth-Holm-Swarm tumor laminin, free of entactin), P19137 25-3083; P02469 22-1786; P02468 34-1607"
–,0.1 mg/mL,0.08 mg/mL,79%,"laminin/entactin complex (laminin-nidogen complex) of the EHS tumor, P19137 25-3083; P02469 22-1786; P02468 34-1607; P10493 29-1245"
